Assay results: paper PMC6856128 (Scientific Reports, 2019)

Test system: O=S(O)(O)=S
Assay: purified protein
Conditions: pH 8.0; 37.0 °C

Substance: CysA2 (Mycobacterium tuberculosis H37Rv)
- Km: 2970 ± 50 µM
